Consider 52 molecules from PMC4072508, “Genome-Wide Prediction and Validation of Peptides That Bind Human Prosurvival Bcl-2 Proteins” (PLoS Computational Biology, 2014).

B1: C17orf103 (peptide)
chain: AYRGRGIAKHLAKALLDFVVEEDLKA
B2: UBE2C (peptide)
chain: SDNLFKWVGTIHGAAGTVYEDLRYKL
B3: CGNL1 (peptide)
chain: PFGLQGNSEYLIEFSRNLGKSSEHLL
B4: TLR5 (peptide)
chain: PEDLQDVGWFLHKLLQQILKKEKEKK
B5: BCL2A1 (peptide)
chain: GSGPSKTSRVLQNVAFSVQKEVEKNL
B6: MRPL41 (peptide)
chain: MGVLAAAARCDVRGADRMSKWTSKRG
B7: NBEAL2 (peptide)
chain: EVRSSQFARKDWRSSRRISQVSSGET
B8: PCSK6 (peptide)
chain: GTKSQLLAKRLLDLSNEGFTNWEFMT
B9: PLB1 (peptide)
chain: RVIPHDGAEDLWIQAQELVRNMKENL
B10: TLR1 (peptide)
chain: TCELGEFVKNIDQVSSEVLEGWPDSY
B11: RIMBP3C (peptide)
chain: RAELTGLARRLADRARELQETNLRAV
B12: CCNH (peptide)
chain: RYPILENPEIDRKTADDFLNRIALTD
B13: EVC (peptide)
chain: EARVLEEASRLEEEAQQTRLQLQQRL
B14: GRIPAP1 (peptide)
chain: RTNNYQLSDELRKNLVELTSLRQKVA
B15: RAPGEF2 (peptide)
chain: FEKLRMIAKEDRHVGRMASVNMDPAL
B16: SMG6 (peptide)
chain: DLQIYQPGRRLQTVSKESASRVEEEE
B17: SYAP1 (peptide)
chain: LHQAKDFGNYLFNFASAATKKITESV
B18: DFNA5 (peptide)
chain: LQIIPTLCHLLRALSDDGVSDLEDPT
B19: C17orf103 (peptide)
chain: AYRGRGIAKHDAKAALDFVVEEDLKA
B20: CASP5 (peptide)
chain: DNHKKKTVKMDEYLGKDVLHGVFNYL
B21: TSN (peptide)
chain: REEIRKVVQSLEQTAREILTLLQGVH
B22: CYP46A1 (peptide)
chain: LREVRESIRFLRQVLRDWVQRRREAL
B23: RB1CC1 (peptide)
chain: LHNLVKAAQSLDEMSQTITDLLSEQK
B24: NOL8 (peptide)
chain: KYDPSKYCHNLKKILEDFSNTIPISS
B25: SKIV2L2 (peptide)
chain: LRQMQECAKRIAKVSAEAKLEIDEET
B26: mTOR (peptide)
chain: GELAQVSGLEDRKWVDELFIIIMDML
B27: CACNA1G (peptide)
chain: VYILRKAARRLAQVSRAAGVRVGLLS
B28: CYP46A1 (peptide)
chain: LREVRESIRFDRQVGRDWVQRRREAL
B29: TFDP1 (peptide)
chain: NRKGEKNGKGDRHFSMKVCEKVQRKG
B30: UBA6 (peptide)
chain: NVGCQQDSEELLKLATSISETLEEKP
B31: MTA1 (peptide)
chain: RQAFYLHTTKLTRILRRLCREILRPW
B32: ORC6L (peptide)
chain: KAIFDRLCKQLEKIGQQVDREPGDVA
B33: PLCG1 (peptide)
chain: QEELQDWVKKIREVAQTADARLTEGK
B34: OTOF (peptide)
chain: DFMGRTFAKPLVKMLDEAYCPPRFPP
B35: TRPM7 (peptide)
chain: FERVEQMCIQIKEVLDRVNYIKRSLQ
B36: RAPGEF2 (peptide)
chain: FEKLRMIAKEIRHVLRMASVNMDPAL
B37: BRPF3 (peptide)
chain: DTIFHRAAVRDRDLGGAILRHARRQA
B38: ARMCX5 (peptide)
chain: FQEAKQFGQKLQDLAEHSDPEVRDKV
B39: NCOA6 (peptide)
chain: FNIPREAAERLRILAQSNNQQLRDLG
B40: OTUD7B (peptide)
chain: KKRADSVANKLGSFGKTLGSKLKKNM
B41: DHX40 (peptide)
chain: QFEIEKSCELLFQMAESVDYDYDVQD
B42: TFDP1 (peptide)
chain: NRKGEKNGKGLRHFLMKVCEKVQRKG
B43: MYO15A (peptide)
chain: YGRLRPRARSLSKASTAINWLTKKFL
B44: MAGEB2 (peptide)
chain: IKKSVTKGEMDKIVGKRFREHFPEIL
B45: ARHGAP4 (peptide)
chain: EVLAGPLAQRLSHILEDVGRLVKKSR
B46: C9orf167 (peptide)
chain: GFQVLNAIENLDDNAQRYDLDGLEKA
B47: LMO2 (peptide)
chain: CLSCDLCGCRDGEVGRRLYYKLGRKL
B48: NUB1 (peptide)
chain: TDENKKVGLALKDLLKQYSDRLECCE
B49: RNF213 (peptide)
chain: LANVTEDAKRLIAVADSVLTKVVGDL
B50: FOLH1 (peptide)
chain: PFDCRDYAVVDRKYADKIYSISMKHP
B51: DYNC2H1 (peptide)
chain: PKELEGYIQKLQNAAERLATENRKLR
B52: TRIM58 (peptide)
chain: KSRLVQQSKALKELLDELQERCQRPA

The target of this assay is Bcl-xL, Q07817. The assay can be described thus: peptide SPOT array, c-Myc-tagged receptor at 1 uM or 100 nM, anti-c-Myc-Cy3.
Bcl-xL, Q07817, sequence (Q07817 1-209): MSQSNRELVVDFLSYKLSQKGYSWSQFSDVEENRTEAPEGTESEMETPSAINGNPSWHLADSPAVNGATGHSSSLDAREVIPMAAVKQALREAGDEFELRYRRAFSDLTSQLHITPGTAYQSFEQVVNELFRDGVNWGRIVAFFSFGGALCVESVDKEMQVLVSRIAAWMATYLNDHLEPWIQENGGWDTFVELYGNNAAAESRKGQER
B1: the SPOT signal as a fraction of Bim BH3's signal on the same receptor and array is 0.17.

The molecule B2 returned an SPOT signal as a fraction of Bim BH3's signal on the same receptor and array of 0.03.

The molecule B3 registered an SPOT signal as a fraction of Bim BH3's signal on the same receptor and array of 0.03.

As to B4, the SPOT signal as a fraction of Bim BH3's signal on the same receptor and array came out at 0.09.

B5 displayed an SPOT signal as a fraction of Bim BH3's signal on the same receptor and array of 0.06.

Consider B6, for which the SPOT signal as a fraction of Bim BH3's signal on the same receptor and array turned out to be 0.56.

Turning to B7, the SPOT signal as a fraction of Bim BH3's signal on the same receptor and array is 0.92.

For B8, the SPOT signal as a fraction of Bim BH3's signal on the same receptor and array is 0.03.

For B9, the SPOT signal as a fraction of Bim BH3's signal on the same receptor and array was found to be 0.03.

In turn, B10 yielded an SPOT signal as a fraction of Bim BH3's signal on the same receptor and array of 0.02.

In the case of B11, the SPOT signal as a fraction of Bim BH3's signal on the same receptor and array came to 0.22.

The molecule B12 returned an SPOT signal as a fraction of Bim BH3's signal on the same receptor and array of 0.02.

B13 had an SPOT signal as a fraction of Bim BH3's signal on the same receptor and array of 0.02.

The molecule B14 gave an SPOT signal as a fraction of Bim BH3's signal on the same receptor and array of 0.52.

On to B15, for which the SPOT signal as a fraction of Bim BH3's signal on the same receptor and array is 0.13.

Take B16: the SPOT signal as a fraction of Bim BH3's signal on the same receptor and array amounted to 0.03.

The molecule B17 came in with an SPOT signal as a fraction of Bim BH3's signal on the same receptor and array of 0.21.

With B18, the SPOT signal as a fraction of Bim BH3's signal on the same receptor and array is 0.03.

In turn, B19 registered an SPOT signal as a fraction of Bim BH3's signal on the same receptor and array of 0.21.

In the case of B20, the SPOT signal as a fraction of Bim BH3's signal on the same receptor and array worked out at 0.11.

B21 returned an SPOT signal as a fraction of Bim BH3's signal on the same receptor and array of 0.04.

B22: the SPOT signal as a fraction of Bim BH3's signal on the same receptor and array is 0.44.

B23 yielded an SPOT signal as a fraction of Bim BH3's signal on the same receptor and array of 0.03.

B24 yielded an SPOT signal as a fraction of Bim BH3's signal on the same receptor and array of 0.28.

B25 showed an SPOT signal as a fraction of Bim BH3's signal on the same receptor and array of 0.03.

With B26, the SPOT signal as a fraction of Bim BH3's signal on the same receptor and array turned out to be 0.02.

The molecule B27 yielded an SPOT signal as a fraction of Bim BH3's signal on the same receptor and array of 0.76.

B28 showed an SPOT signal as a fraction of Bim BH3's signal on the same receptor and array of 1.14.

For B29, the SPOT signal as a fraction of Bim BH3's signal on the same receptor and array was 0.47.

In turn, B30 gave an SPOT signal as a fraction of Bim BH3's signal on the same receptor and array of 0.02.

As to B31, the SPOT signal as a fraction of Bim BH3's signal on the same receptor and array came out at 0.85.

On to B32, for which the SPOT signal as a fraction of Bim BH3's signal on the same receptor and array turned out to be 0.04.

Regarding B33, the SPOT signal as a fraction of Bim BH3's signal on the same receptor and array was found to be 0.03.

B34 returned an SPOT signal as a fraction of Bim BH3's signal on the same receptor and array of 0.17.

In turn, B35 registered an SPOT signal as a fraction of Bim BH3's signal on the same receptor and array of 0.18.

B36 yielded an SPOT signal as a fraction of Bim BH3's signal on the same receptor and array of 0.09.

Molecule B37 returned an SPOT signal as a fraction of Bim BH3's signal on the same receptor and array of 1.5.

The molecule B38 gave an SPOT signal as a fraction of Bim BH3's signal on the same receptor and array of 0.02.

B39 had an SPOT signal as a fraction of Bim BH3's signal on the same receptor and array of 0.08.

B40 yielded an SPOT signal as a fraction of Bim BH3's signal on the same receptor and array of 0.58.

The molecule B41 had an SPOT signal as a fraction of Bim BH3's signal on the same receptor and array of 0.02.

Molecule B42 returned an SPOT signal as a fraction of Bim BH3's signal on the same receptor and array of 0.42.

In turn, B43 displayed an SPOT signal as a fraction of Bim BH3's signal on the same receptor and array of 1.39.

B44 showed an SPOT signal as a fraction of Bim BH3's signal on the same receptor and array of 0.4.

B45: the SPOT signal as a fraction of Bim BH3's signal on the same receptor and array is 0.19.

For B46, the SPOT signal as a fraction of Bim BH3's signal on the same receptor and array worked out at 0.03.

Turning to B47, the SPOT signal as a fraction of Bim BH3's signal on the same receptor and array turned out to be 1.08.

In turn, B48 registered an SPOT signal as a fraction of Bim BH3's signal on the same receptor and array of 0.03.

For B49, the SPOT signal as a fraction of Bim BH3's signal on the same receptor and array is 0.03.

Take B50: the SPOT signal as a fraction of Bim BH3's signal on the same receptor and array came to 0.45.

For the molecule B51, the SPOT signal as a fraction of Bim BH3's signal on the same receptor and array was determined as 0.09.

Take B52: the SPOT signal as a fraction of Bim BH3's signal on the same receptor and array came to 0.11.
